Source: publication PMC9757075 (Nucleic Acids Research, 2022)
Read-outs that look alike come from different tables or passages of the source. Each block holds one molecule with its values, some of them ahead of it.

How the values were obtained:
[1] = target: PorX (wild type, non-phosphorylated) (Porphyromonas gingivalis W83) (UniProt B2RJJ3); assay: SAXS
[2] = target: PorX (wild type, non-phosphorylated) (Porphyromonas gingivalis W83) (UniProt B2RJJ3); assay: SAXS; remark: listed apart in the source
PorX [3] = assay: SEC-MALLS absolute molecular weight; settings: reference: PorX with MgCl2 alone; sites D58
PorX [4] = assay: small-angle X-ray scattering in solution; settings: reference: PorX without BeF3; sites D58
[5] = target: Selenomethionine variant of PorX, phosphorylated with acetyl phosphate (Porphyromonas gingivalis W83) (UniProt B2RJJ3); assay: SEC-MALS
crystal structure = target: the molecule itself; assay: crystal structure
SEC [6] = target: the molecule itself; assay: SEC
SEC [7] = target: the molecule itself; assay: SEC; remark: listed apart in the source

stoichiometry N [1]: 2
stoichiometry N [2]: 2
Molecule: PorX (wild type, non-phosphorylated) (from UniProt B2RJJ3 1-518) (natural protein)

Molecule: PorX PorX pre-incubated with AcP and MgCl2
other: MALLS molecular weight (PorX [3]): gained; reference 70.2

Molecule: PorX PorX with BeF3 and MgCl2
other: radius of gyration (PorX [4]): gained; reference 29.6

stoichiometry N [5]: 2
Molecule: Selenomethionine variant of PorX, phosphorylated with acetyl phosphate (from UniProt B2RJJ3 1-518) (natural protein)

B1: PorX T272A, selenomethionine variant (T272A-pGpG crystal) (natural protein, Porphyromonas gingivalis W83)
chain: MEKNMRPYTVLWADDEIDLLKPHILFLEQKGYQVTPVLSGNDAIEALQNNDFDIVFLDENMPGIGGLDALQKIKELKPYTPVVMITKSEEEHIMTQAIGGKIADYLIKPVNPNQLLLSLKKNLQQHSIISETTNTNYRQEFVQLGAQMSGKLSFEEWKELYRRIVFWEIELEQADRQMGELLEMQKQEANRLFARFVTQNYREWIAKPDTRPTMSPDLFKQKVFPLLDNGEKVFFILIDNFRQDQWESVKSMLSEFYTFEEDMYLSILPTAAQYARNAIFSGLMPLQIEKMFPDLWVDEESEEGKNLNEEPMIRTLIERYRKHYSFSYNKVYETKFGERLLGQIRSLSQNQLNVIVLNFVDMMSHARTDSKMIRELASNEAAYRSLTKSWFKHSTTYNLFRSIAEMGYKVVLTTDHGTIQVKNPVKVIGDRSTNTNLRYKIGKNLDYNPKEVFEIKDPASVGLPHNNLSDKFIFTKEDDFFAYPNNYNYYVQYYRNTFQHGGISLEEMLVPVITMQPK
modifications: selenomethionine
binding result (crystal structure): binds

B2: PorX T272A incubated with acetyl phosphate (phosphorylated) (natural protein, Porphyromonas gingivalis W83)
chain: B1 chain
modifications: phosphorylated with acetyl phosphate (attenuated against the wild type)
binding result (SEC [6]): binds

B3: PorX T272A (natural protein, Porphyromonas gingivalis W83)
chain: B1 chain
binding result (SEC [7]): binds
